Residue numbers refer to the chain shown, from its start.
Columns and labels:
[1] = biological target: Fc tagged human PDL1 (human) (UniProt Q9NZQ7); experiment: SPR Biacore T200; PDL1-Fc captured; molecule 0.12-90 nM
[2] = biological target: human CD137-Fc chimeric protein (human) (UniProt Q07011); experiment: SPR Biacore T200; CD137-Fc captured; molecule as analyte
[3] = biological target: human PDL1 expressed on cells (human) (UniProt Q9NZQ7); experiment: cell-based or functional assay
[4] = biological target: human PDL1 (recombinant, soluble) (human) (UniProt Q9NZQ7); experiment: PDL1/PD-1 competition ELISA; PD-1 coated, biotinylated PDL1 1 ng/ml
[5] = biological target: human PDL1 (recombinant, soluble) (human) (UniProt Q9NZQ7); experiment: PDL1/B7-1 competition ELISA; B7-1 coated, biotinylated PDL1 40 ng/ml

B1: PRO1479 (scDb-scFv: 37-20-B03 sc09.1 / 38-02-A04 sc013 / 19-01-H04 sc03) (protein, from a related filing)
chain: DIQMTQSPASLSASVGDRVTITCQASQSIGTYLAWYQQKPGKPPKLLIYRAFILASGVPSRFSGSGSGTDFTLTISSLQPEDFATYYCQSNFYSDSTTIGPNAFGTGTKVTVLGGGGGSEVQLVESGGGLVQPGGSLRLSCAASGFSFSNSYWICWVRQAPGKCLEWIGCTFVGSSDSTYYANWAKGRFTISRDNSKNTVYLQMNSLRAEDTAVYYCARHPSDAVYGYANNLWGQGTLVTVSSGGGGSGGGGSGGGGSGGGGSIQMTQSPSSLSASVGDRVTITCQASQSINNVLAWYQQKPGKAPKLLIYRASTLASGVPSRFSGSGSGTDFTLTISSLQPEDFATYYCQSSYGNYGDFGCGTKVTVLGGGGGSEVQLVESGGGLVQPGGSLRLSCAASGFSFNSDYWIYWVRQAPGKGLEWIASIYGGSSGNTQYASWAQGRFTISRDNSKNTVYLQMNSLRAEDTAVYFCARGYVDYGGATDLWGQGTLVTVSSGGGGSGGGGSIQMTQSPSSLSASVGDRVTITCQSSESVYSNNQLSWYQQKPGQPPKLLIYDASDLASGVPSRFSGSGSGTDFTLTISSLQPEDFATYYCAGGFSSSSDTAFGGGTKLTVLGGGGGSGGGGSGGGGSGGGGSEVQLVESGGGLVQPGGSLRLSCAASGFSLSSNAMGWVRQAPGKGLEYIGIISVGGFTYYASWAKGRFTISRDNSKNTVYLQMNSLRAEDTATYFCARDRHGGDSSGAFYLWGQGTLVTVSS
Kd [1]: 9.2 pM | koff [1]: 3.9e-05 s⁻¹ | kon [1]: 4.2e+06 M⁻¹ s⁻¹ | Kd [2]: 1700 pM | koff [2]: 0.00054 s⁻¹ | kon [2]: 330000 M⁻¹ s⁻¹ | NF-AT potency assay IC50 (with HSA) [3]: 50.4 ng/mL | NF-AT potency assay rel. IC50 (IC50, Avelumab/IC50, test molecule) (with HSA) [3]: 1.04 | IC50 [4]: 2.65 ng/mL | rel. IC50 (IC50, Avelumab/IC50, test molecule) [4]: 0.86 | IC50 [5]: 10.7 ng/mL | rel. IC50 (IC50, Avelumab/IC50, test molecule) [5]: 1.38

B2: PRO1476 (scDb-scFv: 33-03-G02 sc03 / 38-02-A04 sc013 / 19-01-H04 sc03) (protein, from a related filing)
chain: DIQMTQSPSSLSASVGDRVTITCQASQSINNVLAWYQQKPGKAPKLLIYRASTLASGVPSRFSGSGSGTDFTLTISSLQPEDFATYYCQSSYGNYGDFGCGTKVTVLGGGGGSQSQLQESGPGLVKPSETLSLTCKASGFSFSSGYDMCWVRQPPGKGLEWIACVVAGSVDITYYASWAKGRVTISKDSSKNQVSLKLSSVTAADTAVYFCARKDAYSDAFNLWGQGTLVTVSSGGGGSGGGGSGGGGSGGGGSFQLTQSPSSLSASVGDRVTITCQASQSINDYLAWYQQKPGKSPKLLIYKASTLASGVPSRFSGSGSGTDFTLTISSLQPEDFATYYCQQGYIITDIDNVFGTGTKVTVLGGGGGSEVQLVESGGGLVQPGGSLRLSCAASGFSFSNSYWICWVRQAPGKCLEWIGCTFVGSSDSTYYANWAKGRFTISRDNSKNTVYLQMNSLRAEDTAVYYCARHPSDAVYGYANNLWGQGTLVTVSSGGGGSGGGGSIQMTQSPSSLSASVGDRVTITCQSSESVYSNNQLSWYQQKPGQPPKLLIYDASDLASGVPSRFSGSGSGTDFTLTISSLQPEDFATYYCAGGFSSSSDTAFGGGTKLTVLGGGGGSGGGGSGGGGSGGGGSEVQLVESGGGLVQPGGSLRLSCAASGFSLSSNAMGWVRQAPGKGLEYIGIISVGGFTYYASWAKGRFTISRDNSKNTVYLQMNSLRAEDTATYFCARDRHGGDSSGAFYLWGQGTLVTVSS
Kd [1]: 9 pM | koff [1]: 3.1e-05 s⁻¹ | kon [1]: 3.4e+06 M⁻¹ s⁻¹ | Kd [2]: 1100 pM | koff [2]: 0.00037 s⁻¹ | kon [2]: 350000 M⁻¹ s⁻¹ | NF-AT potency assay IC50 (with HSA) [3]: 53.5 ng/mL | NF-AT potency assay rel. IC50 (IC50, Avelumab/IC50, test molecule) (with HSA) [3]: 0.66 | IC50 [4]: 2.84 ng/mL | rel. IC50 (IC50, Avelumab/IC50, test molecule) [4]: 0.8 | IC50 [5]: 9.49 ng/mL | rel. IC50 (IC50, Avelumab/IC50, test molecule) [5]: 1.1

B3: PRO1430 (scDb-scFv: 37-20-B03 sc01 / 38-02-A04 sc013 / 19-01-H04 sc03) (protein, from a related filing)
chain: DIQMTQSPSSLSASVGDRVTITCQASQSIGTYLAWYQQKPGKAPKLLIYRAFILASGVPSRFSGSGSGTDFTLTISSLQPEDFATYYCQSNFYSDSTTIGPNAFGTGTKVTVLGGGGGSEVQLVESGGGLVQPGGSLRLSCAASGFSFSNSYWICWVRQAPGKCLEWIGCTFVGSSDSTYYANWAKGRFTISRDNSKNTVYLQMNSLRAEDTAVYYCARHPSDAVYGYANNLWGQGTLVTVSSGGGGSGGGGSGGGGSGGGGSIQMTQSPSSLSASVGDRVTITCQASQSINNVLAWYQQKPGKAPKLLIYRASTLASGVPSRFSGSGSGTDFTLTISSLQPEDFATYYCQSSYGNYGDFGCGTKVTVLGGGGGSQVQLQESGPGLVKPSETLSLTCKVSGFSFNSDYWIYWIRQPPGKGLEWIGSIYGGSSGNTQYASWAQGRVTISVDSSKNQFSLKLSSVTAADTAVYYCARGYVDYGGATDLWGQGTLVTVSSGGGGSGGGGSIQMTQSPSSLSASVGDRVTITCQSSESVYSNNQLSWYQQKPGQPPKLLIYDASDLASGVPSRFSGSGSGTDFTLTISSLQPEDFATYYCAGGFSSSSDTAFGGGTKLTVLGGGGGSGGGGSGGGGSGGGGSEVQLVESGGGLVQPGGSLRLSCAASGFSLSSNAMGWVRQAPGKGLEYIGIISVGGFTYYASWAKGRFTISRDNSKNTVYLQMNSLRAEDTATYFCARDRHGGDSSGAFYLWGQGTLVTVSS
Kd [1]: 4.5 pM | koff [1]: 2.4e-05 s⁻¹ | kon [1]: 5.3e+06 M⁻¹ s⁻¹ | Kd [2]: 1500 pM | koff [2]: 0.00071 s⁻¹ | kon [2]: 460000 M⁻¹ s⁻¹ | NF-AT potency assay IC50 (with HSA) [3]: 16.2 ng/mL | NF-AT potency assay rel. IC50 (IC50, Avelumab/IC50, test molecule) (with HSA) [3]: 1.45 | IC50 [4]: 1.92 ng/mL | rel. IC50 (IC50, Avelumab/IC50, test molecule) [4]: 0.73 | IC50 [5]: 2.42 ng/mL | rel. IC50 (IC50, Avelumab/IC50, test molecule) [5]: 1.15

B4: PRO1482 (scDb-scFv: 37-20-B03 sc09.1 / 38-02-A04 sc013 / 19-01-H04 sc03) (protein, from a related filing)
chain: DIQMTQSPSSLSASVGDRVTITCQASQSINNVLAWYQQKPGKAPKLLIYRASTLASGVPSRFSGSGSGTDFTLTISSLQPEDFATYYCQSSYGNYGDFGCGTKVTVLGGGGGSEVQLVESGGGLVQPGGSLRLSCAASGFSFNSDYWIYWVRQAPGKGLEWIASIYGGSSGNTQYASWAQGRFTISRDNSKNTVYLQMNSLRAEDTAVYFCARGYVDYGGATDLWGQGTLVTVSSGGGGSGGGGSGGGGSGGGGSIQMTQSPASLSASVGDRVTITCQASQSIGTYLAWYQQKPGKPPKLLIYRAFILASGVPSRFSGSGSGTDFTLTISSLQPEDFATYYCQSNFYSDSTTIGPNAFGTGTKVTVLGGGGGSEVQLVESGGGLVQPGGSLRLSCAASGFSFSNSYWICWVRQAPGKCLEWIGCTFVGSSDSTYYANWAKGRFTISRDNSKNTVYLQMNSLRAEDTAVYYCARHPSDAVYGYANNLWGQGTLVTVSSGGGGSGGGGSIQMTQSPSSLSASVGDRVTITCQSSESVYSNNQLSWYQQKPGQPPKLLIYDASDLASGVPSRFSGSGSGTDFTLTISSLQPEDFATYYCAGGFSSSSDTAFGGGTKLTVLGGGGGSGGGGSGGGGSGGGGSEVQLVESGGGLVQPGGSLRLSCAASGFSLSSNAMGWVRQAPGKGLEYIGIISVGGFTYYASWAKGRFTISRDNSKNTVYLQMNSLRAEDTATYFCARDRHGGDSSGAFYLWGQGTLVTVSS
Kd [1]: 9.8 pM | koff [1]: 3.3e-05 s⁻¹ | kon [1]: 3.4e+06 M⁻¹ s⁻¹ | Kd [2]: 1100 pM | koff [2]: 0.00036 s⁻¹ | kon [2]: 320000 M⁻¹ s⁻¹ | NF-AT potency assay IC50 (with HSA) [3]: 54.8 ng/mL | NF-AT potency assay rel. IC50 (IC50, Avelumab/IC50, test molecule) (with HSA) [3]: 0.68 | IC50 [4]: 1.78 ng/mL | rel. IC50 (IC50, Avelumab/IC50, test molecule) [4]: 1.24 | IC50 [5]: 8.18 ng/mL | rel. IC50 (IC50, Avelumab/IC50, test molecule) [5]: 1.51

B5: PRO1431 (scDb-scFv: 33-03-G02 sc18 / 38-02-A04 sc013 / 19-01-H04 sc03) (protein, from a related filing)
chain: DIQMTQSPSSLSASVGDRVTITCQASQSINDYLAWYQQKPGKAPKLLIYKASTLASGVPSRFSGSGSGTDFTLTISSLQPEDFATYYCQQGYIITDIDNVFGTGTKVTVLGGGGGSEVQLVESGGGLVQPGGSLRLSCAASGFSFSNSYWICWVRQAPGKCLEWIGCTFVGSSDSTYYANWAKGRFTISRDNSKNTVYLQMNSLRAEDTAVYYCARHPSDAVYGYANNLWGQGTLVTVSSGGGGSGGGGSGGGGSGGGGSIQMTQSPSSLSASVGDRVTITCQASQSINNVLAWYQQKPGKAPKLLIYRASTLASGVPSRFSGSGSGTDFTLTISSLQPEDFATYYCQSSYGNYGDFGCGTKVTVLGGGGGSQVQLQESGPGLVKPSETLSLTCKASGFSFSSGYDMCWVRQPPGKGLEWIACVVAGSVDITYYASWAKGRVTISKDSSKNQVSLKLSSVTAADTAVYYCARKDAYSDAFNLWGQGTLVTVSSGGGGSGGGGSIQMTQSPSSLSASVGDRVTITCQSSESVYSNNQLSWYQQKPGQPPKLLIYDASDLASGVPSRFSGSGSGTDFTLTISSLQPEDFATYYCAGGFSSSSDTAFGGGTKLTVLGGGGGSGGGGSGGGGSGGGGSEVQLVESGGGLVQPGGSLRLSCAASGFSLSSNAMGWVRQAPGKGLEYIGIISVGGFTYYASWAKGRFTISRDNSKNTVYLQMNSLRAEDTATYFCARDRHGGDSSGAFYLWGQGTLVTVSS
Kd [1]: 14 pM | koff [1]: 4.5e-05 s⁻¹ | kon [1]: 3.3e+06 M⁻¹ s⁻¹ | Kd [2]: 1700 pM | koff [2]: 0.00075 s⁻¹ | kon [2]: 450000 M⁻¹ s⁻¹ | NF-AT potency assay IC50 (with HSA) [3]: 9.83 ng/mL | NF-AT potency assay rel. IC50 (IC50, Avelumab/IC50, test molecule) (with HSA) [3]: 3.73 | IC50 [4]: 2.75 ng/mL | rel. IC50 (IC50, Avelumab/IC50, test molecule) [4]: 0.51 | IC50 [5]: 3.31 ng/mL | rel. IC50 (IC50, Avelumab/IC50, test molecule) [5]: 0.84

B6: PRO1473 (scDb-scFv: 33-03-G02 sc03 / 38-02-A04 sc013 / 19-01-H04 sc03) (protein, from a related filing)
chain: B5 chain with I2F, M4L, A43S, V374S, Y469F
Kd [1]: 8.2 pM | koff [1]: 2.9e-05 s⁻¹ | kon [1]: 3.6e+06 M⁻¹ s⁻¹ | Kd [2]: 2000 pM | koff [2]: 0.0006 s⁻¹ | kon [2]: 310000 M⁻¹ s⁻¹ | NF-AT potency assay IC50 (with HSA) [3]: 35.2 ng/mL | NF-AT potency assay rel. IC50 (IC50, Avelumab/IC50, test molecule) (with HSA) [3]: 1.11 | IC50 [4]: 4.14 ng/mL | rel. IC50 (IC50, Avelumab/IC50, test molecule) [4]: 0.56 | IC50 [5]: 8.89 ng/mL | rel. IC50 (IC50, Avelumab/IC50, test molecule) [5]: 1.49

Reference: patent US20200283528A1
